The text below walks through data of a protein production outcome set (Wang et al. 2014).
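Also: failed if final PepcDB status was selected cloned or expressed and not failed if soluble or beyond.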

The nature of this data set: label from the status in PepcDB records.
With “MSLGHIIVTGAGSGLGRALTIGLVERGHQVSMMGRRYQRLQQQELLLGNAVIGIVADLAHHEDVDVAFAAAVEWGGLPELVLHCAGTGEFGPVGVYTAEQIRRVMESNLVSTILVAQQTVRLIGERGGVLANVLSSAAQVGKANESLYCASKWGMRGFLESLRAELKDSPLRLVNLYPSGIRSEFWDNTDHVDPSGFMTPEDAAAYMLDALEARSSCHVTDLFIGRNEGHHHHHH”, the protein production result is reported as “not failed”.
In the case of “MKVLLDTNIIVDFLSKRPVFFNEAEKIISKCRDGEIIGIVAVHTVSTLFYLLKKYVSPETLRDIFYNLFEIIEIGRADKNSVLEALKNTEFTDFEDGLQYQCALEEFVDCIITRNKKDFFSSKIPVYTPSEFLKSLLEHHHHHH” it was “failed”; in that of “MQVITSVKEAKQIVKDWKSHQLSIGYVPTMGFLHDGHLSLVKHAKTQDKVIVSIFVNPMQFGPNEDFSSYPRDLERDIKMCQDNGVDMVFIPDATQMYLKNFSTYVDMNTITDKLCGAKRPGHFRGVCTVLTKFFNILNPDIVYMGQKDAQQCVVVRHMVDDLNFDLKIQICPIIREEDGLAKSSRNVYLSKEERKASLAISQSIFLAEKLVREGEKNTSKIIQAMKDILEKEKLIKIDYIELVDFNTMENIENITDNVLGAVAAFVGKTRLIDNFLVQGLK”, “not failed”; in that of “MSEEIREVKVLEKPWVEKYRPQRLDDIVGQEHIVKRLKHYVKTGSMPHLLFAGPPGVGKCLTGDTKVIANGQLFELGELVEKLSGGRFGPTPVKGLKVLGIDEDGKLREFEVQYVYKDRTDRLIKIKTQLGRELKVTPYHPLLVNRENGEIKWIKAEELKPGDKLAIPSFLPLITGENPLAEWLGYFMGSGYAYPSNSVITFTNEDPLIRQRFMELTEKLFPDAKIRERIHADGTPEVYVVSRKAWSLVNSISLTLIPREGWKGIRSFLRAYSDCNGRIESDAIVLSTDNNDMAQQIAYALASFGIIAKMDGEDVIISGSDNIERFLNEIGFSTQSKLKEAQKLIRKTNVRSDGLKINYELISYVKDRLRLNVNDKRNLSYRNAKELSWELMKEIYYRLEELERLKKVLSEPILIDWNEVAKKSDEVIEKAKIRAEKLLEYIKGERKPSFKEYIEIAKVLGINVERTIEAMKIFAKRYSSYAEIGRKLGTWNFNVKTILESDTVDNVEILEKIRKIELELIEEILSDGKLKEGIAYLIFLFQNELYWDEITEVKELRGDFIIYDLHVPGYHNFIAGNMPTVVHNTTAALALARELFGENWRHNFLELNASDERGINVIREKVKEFARTKPIGGASFKIIFLDEADALTQDAQQALRRTMEMFSSNVRFILSCNYSSKIIEPIQSRCAIFRFRPLRDEDIAKRLRYIAENEGLELTEEGLQAILYIAEGDMRRAINILQAAAALDKKITDENVFMVASRARPEDIREMMLLALKGNFLKAREKLREILLKQGLSGEDVLVQMHKEVFNLPIEEPKKVLLADKIGEYNFRLVEGANEIIQLEALLAQFTLIGKK”, “failed”.
For the sequence “MKQARRHCWRRGIAATLIGGVISRRGTRASIGRDGLQLRFAALPWRTRCVAAAFCRFVKRSTRTPRARQESAVGLATLDIVIVLVYLTGIFVLAQWVSREKAGHSKSAEDYFLASKSLPWWAIGASLIAANISAEQIIGMAGSGYAIGLAIASYEWMAALTLLIVGKFFLPIFLRNGIYTMPQFLEQRYGKWIRTLMAVFWLLLYVFVNLTSILWLGSIAVSQVTGMDQTLALALIGVFALVYQLYGGLKAVALTDIVQVTLLVLGGLLVAALTLARIGDGAGVLEGFQHLWNAHPEHFHMILTKDNPFYKDLPGLSVLLGGLWVMNISYWGFNQYIIQRALAAKNIGEAQKGMVFAAFLKLLMPLVIVVPGIAAVVLAPDLAKPDQAYPTMMQLLPTGMLGLVFAALVAAIVASLASKINSVATIFTLDFYAKFRPQTEQKQLVRVGRIVAAVSVLIGILTARPLLGNFDQGFQFIQEFTGFFTPGVVVIFMLGLFWKRANEAGALTAAIGSVVLSFVLKFAWPELPFMDRIGVVFVAALMLAVLVSLLTPATQARDLIRTNEVAYGTTLSFKIGAAGVIAILIVLYTVFW”, the protein production entry is listed as “failed”.
For “MRNSKSLKLTIMGIGIALNIIGAFIALNLRLPIYLDSIGTIMVGFVLGPVYGMATGVLGSVVSGITFDIYSLYFAPVQIFTGFFAGYFYEKGLMKGKKLFLSVFVMTLFVSFTGACLTAYIFGGITSSGSSYIIVILNNLGVNPVVSAFITQFLTDYCDKLVAVLIMLQVVVRLPKNILLRVQNN” the value was “failed”; for “GQDYLDIIGRLLPVLPYNLAIIGADGQVLLMNPPMSRITGMSLRQFVMYPSDWVVQEDKAAVADAVRRYSSGRALSGEISVRLIAKPEETVILTLTGIRHLGESALMISLQESASENEIKQQMAQTTRMQAIGQLAGGVAHDFNNILTAI”, “failed”.
Take “MQLNESMSTQDNSLAENYYQQAIEQWKSRDQKQALQFFKKAVRAKPSNAHYWYALAGTYHIQNKFRAARFCFEKSLNLNPNQDEIKIFLCEICYLLTDYKSVAYYAGQVDLSKIQNLEILYKVACSFKELGQLEKTGQVCSQILSLDDNFWQAKLLAAEILRIKGYSGEAKVLVLELIDQQPTVGKFWNELGINEVDLAHEDEALSAFSKAEQYVSGPEKLIIGSNYLFEFSSGLRTAKDILDAHLLWNKKYCKDQGGSFQSSKFNYLKSNDKKNIAYLSGDFKTHSVSYFIEGILENHSRDAFNIILLSNTQEDEKTKKFKELADIWIDLKLTNFETAAQIVKRLNIDILIELSGHTNGNKLNLLSSRLAPVQATYLGYFATTGLSTIDYWITDNVVHPAHTVELATETIFRLPRCYLAYTPPPQSPSIAESPVIKNGYITFGSFVASRKISDYSILLWSSILSEIPNSQLLIKNRSCVSPLYRSELIEKFSLCGISSQRINFNEAKLNLEDHLALYNKVDIALDTYPASGCTTTVEALWMGVPVLTRLGELMVSRNSASLLHALNLQNWIAETDEEYIDKGIKFTQSIEQLALLRQGMRERFMQSELYDSRGLTLHLEDFYLKALQEKLSANKEVRF”: the protein production result is reported as “failed”.
For “VDRDYLQSEYGVLKAGQCYKVVRSFRDYRNINYERGDVMRFLGSNFVPYESGLSLFFDKNGSERQIMLCVRPEFQMEIAHHLDSYFCKLDDN”, the protein production result is recorded as “not failed”.
In the case of “DGSFRRWSLRQVPEVQGAFMAMDVNSGRVLAMQGGFSYQYSVFNRATQATRQPGSSFKPFVYAAALDSGFTPATIVIDAPIEVQTAQGLWTPKNASGKYYGPTPLRTGVEQSRNLMTVRIAQEIGMDTVASYAERFGVYDRMGQFLANALGAEETTLFKMVAAYAMFANGGERVQPTLVDRVQDRFGRTIYRHDQRICDDCAQPLLPEGRAPHITSKRERVMDAITAYQLTSMMEGVIKRGTGRGINLPVPVAGKTGTTNDAKDVWFIGYTSNIVAGCYIGYDQPRSMGSASGGGFCGPVFQSFMTKAVKKYGGSEF” it was “failed”; in that of “VPGILMCEIFIRANQRSYSVQARSLRLHGVATSVRLEQLFWDVLEEIAARDGMRVTQLIERLYDELVQYRGEAANFTSFLRVCCLRYQVLQAEGRIPADATVPIRSLDAQAVLRGLPANLYDSR”, “not failed”.
With “MCIQKVIEDKLSSALKPTFLELVDKSCGCGTSFDAVIVSNNFEDKKLLDRHRLVNTILKEELQNIHAFSMKCHTPLEYDKLKSK”, the protein production entry was “not failed”.
In the case of “MVNLMKNEKEINGKKSHFFSLSESRFMRFLGGNDLIYALIALVLLGIVIFIFDKISYVFQPFIIVFNTIAAPIIVSLVLFYLFNPIVNMMERYRIPRLLGITIIYVAIIGIITLIVNLLIPIIGSQIESFIKNTPNYLHKITRSLDKLNNNTILSGYMGQVNEWLESAQKKIPSMVSDYSDGFGSKLATFAEAVANIGIVIGTTPFVLFFMLKDGHKFKDYTTKIMPPKFRKDFHDLLEKMSVQVGSYIQGQIIVSFCIGLLLFIGYSIIGLKYALVLASIAAVTSVVPYLGPTIAISPAIVIAIITSPLMLLKLAVVWTLVQFFEGHFISPNVMGKTLKIHPLTIIFILLCAGNLMGIVGVIIGIPLYAVLKVLVSHIFMLFKRRYNRYYGNDAGEYTITEEEKGIKQ” it was “failed”; in that of “MNRFSRARSYISLVLFRKSSYVTSHIPWNQCFYTSLKSSLKPASVSVSSVHCYSSRSKTAKSKMSKSSVSVSDSDKEKDAFFVVRKGDIVGIYKDLIDCQAQVGSSVYDPPVSVYKGYSLLKDTEECLSTVGLKKPLYVFRALDLKEDMFGALTPCLFQDQLPSASMSVEKLAELEPSADTSYETCIIEFDGASKGNPGLSGAAAVLKTEDGSLIFKMRQGLGIATNNAAEYHGLILGLKHAIEKGYTKIKVKTDSKLVCMQMKGQWKVNHEVLSKLHKEAKQLSDKCLSFEISHVLRSLNSDADEQANMAARLSEGEVEVA”, “failed”.
Regarding “SVDKNRTLHELSSKNFSRTPNGLIFTNDLKTVYSIFLICLDLKEKKHSSDTKSFLLTAFTKHFHFTFTYQEAIKAMGQLELKVDMNTTCINVSYNIKPSLARHLLTLFMSSKLLHTPQDRTRGEPKEKVLFQPTPKGVAVLQKYVRDIGLKTMPDILLSSFNSMKLFTFERSSVTDSIIHSDYLIHILFIKMMGAKPNVWSPTNADDPLPCLSSLLEYTNNDDTFTFEKSKPEQGWQAQIGNIDINDLERVSPLAHRFFTNPDSESHTQYYVSNAGIRLFENKTFGTSKKIVIKYTFTTKAIWQWIMDCTDIMHVKEAVSLAALFLKTGLIVPVLLQPSRTDKKKFQISRSSFFTLSKRGWDLVSWTGCKSNNIRAPNGSTIDLDFTLRGHMTVRDEKKTLDDSEGFSQDMLISSSNLNKLDYVLTDPGMRYLFRRHLEKELCVENLDVFIEIKRFLKKMTILKKLIDSKHCDKKSNTSTSKNNIVKTIDSALMKQANECLEMAYHIYSSYIMIGSPYQLNIHHNLRQNISDIMLHPHSPLSEHFPTNLYDPSPASAESAASSISSTEADTLGEPPEVSLKPSKNLSNENCSFKKQGFKHQLKEYKPAPLTLAETHSPNASVENSHTIVRYGMDNTQNDTKSVESFPATLKVLRKLYPLFEIVSNEMYRLMNNDSFQKFTQSDVYKDASALIEIQEKC”, the protein production entry is reported as “failed”.
For “MLKLLWIALGGSLGALCRYGLSVLARWGLPPTVPWGTLAANLVGCFLIGGLWVLAAQYSFSEELRVFIFTGGIGSLTTFSTYSLESLLLLREGRVWAGLANVLVSNVLGLVLVAIGAGCALFLLGGPVAAFGA” the value was “failed”; for “MIRLTIEETNLLSIYNEGGKRGLMENINAALPFMDEDMRELAKRTLAKIAPLTENEYAELAIFAADEVLEHHHHHH”, “not failed”; for “MTTYTSIANVIKERRSVRTFTDKAVEKDLLIELLNDATWAPNHKHREPWNCKLYIGEGRKKLVDAVLNSFTEEERAKRGKILSDRFLSTPAQIVVYMNEDPRQIQRDEDYAATCAFMQNFQLLAWERGLGCVWKSGGLNYNPLFIEGIGLTRGQRIVGILHIGYFDKAPEGKARTPITEKMEIIEG”, “not failed”.
For “MTAIPLTFYLGLAALLFSIGLYGVMTHKSGIRMIMCIELMLNSANLNLVAFSSYTDTLNGQVFAIFSIALAAAEAAVGFAIFMAIYRMHDKINLDELNILRW” the value was “failed”.
On to “MVEPGVAKLTTYASKQATDMGAIYVNSKGDRIVNESNVYTTFRNAILKQADKVAYLVMDERTWKKVYDLLILHDFTPEEIKSFFENKGKRPVFVKGSLESAAEQAGIVVDELVQTVKNYQGYVQDGHDHDFGRDPKYLHQFEGETFYIIEQRLEHHHHHH”, for which the protein production result is “failed”.
In the case of “MKPRVEILMSTYNGEKFLAEQLDSILAQTHQYFVLTVRDDGSKDGTPDILSRYAATDERITYCVQENRGVVGSFYWLLKNSSPLSNYVAFSDQDDVWLPNKLERALDVLSRYDETLPLLYCSRVEYVSAGLGHLDDSPMMVRPVCLNNALIQNVATGCTVVMNKAARDLLLEREWPPQVLMHDWWSYIVVSAFGKVVYDDFVSIKYRQHGGNVIGGTVSFVSDYRSRIINFLSRRRKGVFGCYDQAYSFWLGYKDELKGESRGIVSQFIESKRSFLSRLNYLTSSQRVYRHRFIDDVLVRLLILSNKYLEHHHHHH” it was “failed”.
